Laboratory results as given in patent US20190134153A1, “IMMUNOMODULATORY EFFECT OF INHALED KINASE INHIBITOR PEPTIDES IN LUNG” (MOERAE MATRIX, INC., priority 2017, published 2019).

What was measured:
Assay in all cases: Kinase Profiling Assay
Type in all cases: biochemical
Settings in all cases: 100 μM
IGF-1R(h), activated = IGF-1R(h), activated (Homo sapiens, UniProt P08069)
ULK2(h) = biological target: T1, ULK2(h) (Homo sapiens, UniProt Q8IYT8)
T1 sequence (Q8IYT8 1-1036): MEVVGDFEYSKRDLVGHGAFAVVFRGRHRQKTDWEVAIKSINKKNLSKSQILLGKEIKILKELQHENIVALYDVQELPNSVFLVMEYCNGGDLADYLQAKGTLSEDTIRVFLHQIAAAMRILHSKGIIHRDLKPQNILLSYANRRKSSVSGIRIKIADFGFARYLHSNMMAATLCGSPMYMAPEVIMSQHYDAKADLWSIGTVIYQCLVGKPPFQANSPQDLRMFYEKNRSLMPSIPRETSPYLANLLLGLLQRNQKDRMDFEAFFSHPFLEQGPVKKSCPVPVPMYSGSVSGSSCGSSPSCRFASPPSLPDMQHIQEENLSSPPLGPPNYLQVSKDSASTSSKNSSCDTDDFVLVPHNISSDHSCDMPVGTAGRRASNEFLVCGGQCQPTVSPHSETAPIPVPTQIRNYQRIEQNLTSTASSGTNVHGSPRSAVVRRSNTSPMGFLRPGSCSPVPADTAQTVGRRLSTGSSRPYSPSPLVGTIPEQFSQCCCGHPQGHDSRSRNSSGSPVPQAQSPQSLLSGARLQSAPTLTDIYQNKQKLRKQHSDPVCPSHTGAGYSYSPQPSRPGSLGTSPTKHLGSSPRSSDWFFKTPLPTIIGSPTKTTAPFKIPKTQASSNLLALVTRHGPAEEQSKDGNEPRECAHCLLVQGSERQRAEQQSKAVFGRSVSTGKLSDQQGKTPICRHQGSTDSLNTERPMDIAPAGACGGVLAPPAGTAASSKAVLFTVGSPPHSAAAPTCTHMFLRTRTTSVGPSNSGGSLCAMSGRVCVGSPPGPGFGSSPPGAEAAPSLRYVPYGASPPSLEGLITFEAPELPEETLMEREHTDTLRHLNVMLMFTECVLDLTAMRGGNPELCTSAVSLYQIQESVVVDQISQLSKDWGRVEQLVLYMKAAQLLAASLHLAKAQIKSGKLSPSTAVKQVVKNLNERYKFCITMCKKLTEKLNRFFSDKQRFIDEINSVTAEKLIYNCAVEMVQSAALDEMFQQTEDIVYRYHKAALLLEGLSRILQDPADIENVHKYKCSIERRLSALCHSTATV

PRAK(h) = biological target: T2, PRAK(h) (Homo sapiens, UniProt Q8IW41)
T2 sequence (Q8IW41 1-473): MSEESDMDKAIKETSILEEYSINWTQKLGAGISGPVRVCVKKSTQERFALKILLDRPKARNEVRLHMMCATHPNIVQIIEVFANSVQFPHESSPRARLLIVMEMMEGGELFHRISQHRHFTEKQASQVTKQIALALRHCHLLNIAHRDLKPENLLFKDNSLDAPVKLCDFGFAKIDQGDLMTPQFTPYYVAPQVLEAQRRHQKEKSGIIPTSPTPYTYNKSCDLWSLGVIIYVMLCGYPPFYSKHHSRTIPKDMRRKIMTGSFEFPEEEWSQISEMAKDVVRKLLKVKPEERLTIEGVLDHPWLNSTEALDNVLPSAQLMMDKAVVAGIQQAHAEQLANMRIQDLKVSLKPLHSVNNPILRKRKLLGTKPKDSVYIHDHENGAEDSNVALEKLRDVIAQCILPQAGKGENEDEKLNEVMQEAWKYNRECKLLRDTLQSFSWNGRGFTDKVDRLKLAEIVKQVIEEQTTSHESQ

WNK3(h) = WNK3(h) (Homo sapiens, UniProt Q9BYP7)
Met(Y1248C)(h) = Met(Y1248C)(h) (Homo sapiens, UniProt P08581, Y1230C)
IRR(h) = IRR(h) (Homo sapiens, UniProt P14616)
IRR(h), sequence (P14616 27-1297): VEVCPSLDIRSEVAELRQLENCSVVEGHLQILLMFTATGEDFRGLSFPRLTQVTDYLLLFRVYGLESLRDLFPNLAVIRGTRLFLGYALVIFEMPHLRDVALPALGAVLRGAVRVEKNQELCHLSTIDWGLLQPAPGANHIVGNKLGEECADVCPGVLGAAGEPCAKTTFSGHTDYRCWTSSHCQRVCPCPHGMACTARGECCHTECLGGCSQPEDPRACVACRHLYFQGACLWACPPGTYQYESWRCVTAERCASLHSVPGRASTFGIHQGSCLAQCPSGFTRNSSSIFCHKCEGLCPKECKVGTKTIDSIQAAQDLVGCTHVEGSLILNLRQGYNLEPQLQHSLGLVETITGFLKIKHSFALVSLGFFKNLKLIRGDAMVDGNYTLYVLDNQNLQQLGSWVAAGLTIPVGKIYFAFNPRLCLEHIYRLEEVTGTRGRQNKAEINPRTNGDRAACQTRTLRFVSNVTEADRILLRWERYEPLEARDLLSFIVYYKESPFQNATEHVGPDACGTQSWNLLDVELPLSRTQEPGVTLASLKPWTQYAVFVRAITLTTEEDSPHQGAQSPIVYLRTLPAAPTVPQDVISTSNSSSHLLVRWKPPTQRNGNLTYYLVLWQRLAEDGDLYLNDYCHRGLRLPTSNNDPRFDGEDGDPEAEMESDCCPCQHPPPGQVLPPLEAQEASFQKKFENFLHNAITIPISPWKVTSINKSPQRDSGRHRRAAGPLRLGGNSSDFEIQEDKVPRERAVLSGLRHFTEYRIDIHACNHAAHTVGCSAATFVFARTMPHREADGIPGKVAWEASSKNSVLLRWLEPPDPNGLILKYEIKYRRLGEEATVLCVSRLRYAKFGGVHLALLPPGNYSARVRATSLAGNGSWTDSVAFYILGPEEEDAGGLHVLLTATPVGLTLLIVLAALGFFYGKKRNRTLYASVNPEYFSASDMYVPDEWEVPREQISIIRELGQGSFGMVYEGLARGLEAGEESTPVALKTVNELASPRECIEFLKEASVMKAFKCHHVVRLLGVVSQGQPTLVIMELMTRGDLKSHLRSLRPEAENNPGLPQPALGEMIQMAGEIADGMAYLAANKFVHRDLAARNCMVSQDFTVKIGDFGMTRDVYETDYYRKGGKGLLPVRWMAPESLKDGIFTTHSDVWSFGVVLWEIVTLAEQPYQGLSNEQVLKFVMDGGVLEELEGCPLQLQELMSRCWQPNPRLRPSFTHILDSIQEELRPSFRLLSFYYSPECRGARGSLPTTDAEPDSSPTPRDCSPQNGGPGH

cKit(V654A)(h) = cKit(V654A)(h) (Homo sapiens, UniProt P10721, V654A)
EphA4(h) = EphA4(h) (Homo sapiens, UniProt P54764)
EphA4(h), sequence (P54764 20-986): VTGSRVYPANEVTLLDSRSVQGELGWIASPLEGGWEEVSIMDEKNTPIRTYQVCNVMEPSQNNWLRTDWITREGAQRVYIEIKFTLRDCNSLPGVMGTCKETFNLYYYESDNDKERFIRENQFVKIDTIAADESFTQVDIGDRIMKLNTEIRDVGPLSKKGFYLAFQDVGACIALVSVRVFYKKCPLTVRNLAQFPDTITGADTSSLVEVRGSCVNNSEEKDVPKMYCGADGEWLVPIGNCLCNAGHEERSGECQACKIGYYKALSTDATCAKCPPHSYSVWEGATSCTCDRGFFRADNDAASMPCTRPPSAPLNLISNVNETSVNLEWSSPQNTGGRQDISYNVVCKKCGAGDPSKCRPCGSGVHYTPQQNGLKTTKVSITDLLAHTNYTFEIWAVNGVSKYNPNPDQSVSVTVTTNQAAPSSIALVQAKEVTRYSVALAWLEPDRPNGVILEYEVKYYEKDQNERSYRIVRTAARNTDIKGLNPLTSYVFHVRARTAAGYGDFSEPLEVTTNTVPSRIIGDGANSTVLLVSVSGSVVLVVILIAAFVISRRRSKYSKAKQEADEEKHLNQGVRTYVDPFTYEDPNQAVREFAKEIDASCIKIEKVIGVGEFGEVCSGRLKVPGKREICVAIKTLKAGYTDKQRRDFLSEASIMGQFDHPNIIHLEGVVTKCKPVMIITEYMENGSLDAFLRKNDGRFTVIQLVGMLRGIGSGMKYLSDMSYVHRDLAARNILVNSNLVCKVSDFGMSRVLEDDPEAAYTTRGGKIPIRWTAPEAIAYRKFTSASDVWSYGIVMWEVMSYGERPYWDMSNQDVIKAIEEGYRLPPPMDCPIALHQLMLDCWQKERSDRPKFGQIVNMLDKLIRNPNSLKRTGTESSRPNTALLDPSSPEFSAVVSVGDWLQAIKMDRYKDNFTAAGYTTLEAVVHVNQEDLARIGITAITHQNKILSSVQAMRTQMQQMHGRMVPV

ROCK-II(h) = ROCK-II(h) (Homo sapiens, UniProt O75116)
ROCK-II(h), sequence (O75116 whole entry): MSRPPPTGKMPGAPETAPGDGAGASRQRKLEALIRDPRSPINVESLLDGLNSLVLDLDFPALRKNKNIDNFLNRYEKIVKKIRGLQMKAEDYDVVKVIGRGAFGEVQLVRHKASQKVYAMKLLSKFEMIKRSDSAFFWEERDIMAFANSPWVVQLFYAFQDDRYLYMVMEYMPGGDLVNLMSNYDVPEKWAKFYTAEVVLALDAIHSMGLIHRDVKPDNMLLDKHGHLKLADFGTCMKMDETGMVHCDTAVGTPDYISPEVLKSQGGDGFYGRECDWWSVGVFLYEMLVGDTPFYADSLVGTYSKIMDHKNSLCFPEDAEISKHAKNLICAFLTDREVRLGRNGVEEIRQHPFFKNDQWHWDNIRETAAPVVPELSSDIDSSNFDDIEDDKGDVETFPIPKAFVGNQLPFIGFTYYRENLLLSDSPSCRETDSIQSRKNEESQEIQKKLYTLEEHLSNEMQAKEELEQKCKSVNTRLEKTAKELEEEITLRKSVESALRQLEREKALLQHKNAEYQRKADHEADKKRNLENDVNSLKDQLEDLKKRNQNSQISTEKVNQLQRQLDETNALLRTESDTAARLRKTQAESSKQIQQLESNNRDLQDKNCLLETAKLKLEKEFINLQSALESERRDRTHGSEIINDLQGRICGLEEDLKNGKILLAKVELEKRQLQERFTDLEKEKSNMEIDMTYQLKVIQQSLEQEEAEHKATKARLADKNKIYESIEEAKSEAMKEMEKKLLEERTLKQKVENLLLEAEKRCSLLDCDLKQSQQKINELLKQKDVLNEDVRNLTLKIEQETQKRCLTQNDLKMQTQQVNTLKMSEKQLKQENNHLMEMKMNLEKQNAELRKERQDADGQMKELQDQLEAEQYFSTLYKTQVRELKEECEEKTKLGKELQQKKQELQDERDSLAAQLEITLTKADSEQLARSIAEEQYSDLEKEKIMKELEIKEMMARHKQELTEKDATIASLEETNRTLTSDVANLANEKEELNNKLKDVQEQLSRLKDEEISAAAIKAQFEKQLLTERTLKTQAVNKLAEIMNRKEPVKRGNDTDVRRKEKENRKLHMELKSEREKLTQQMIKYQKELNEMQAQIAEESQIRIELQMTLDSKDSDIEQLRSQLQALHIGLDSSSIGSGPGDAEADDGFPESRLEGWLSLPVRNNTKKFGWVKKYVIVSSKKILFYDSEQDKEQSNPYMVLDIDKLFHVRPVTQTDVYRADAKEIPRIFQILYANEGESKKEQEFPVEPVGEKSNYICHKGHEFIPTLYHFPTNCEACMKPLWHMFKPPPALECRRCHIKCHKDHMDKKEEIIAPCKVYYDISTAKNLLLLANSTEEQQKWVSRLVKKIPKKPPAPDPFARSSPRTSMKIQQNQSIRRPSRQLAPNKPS

NEK7(h) = NEK7(h) (Homo sapiens, UniProt Q8TDX7)
NEK7(h), sequence (Q8TDX7 whole entry): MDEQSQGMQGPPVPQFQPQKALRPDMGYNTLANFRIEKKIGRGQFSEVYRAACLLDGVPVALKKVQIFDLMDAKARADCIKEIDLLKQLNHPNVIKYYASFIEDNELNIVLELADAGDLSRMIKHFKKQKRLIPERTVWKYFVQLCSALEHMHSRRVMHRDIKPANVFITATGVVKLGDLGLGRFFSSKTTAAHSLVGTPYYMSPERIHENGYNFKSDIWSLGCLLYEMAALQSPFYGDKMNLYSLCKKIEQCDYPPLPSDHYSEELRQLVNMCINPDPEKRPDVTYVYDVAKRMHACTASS

CDK1/cyclinB(h) = CDK1/cyclinB(h) (Homo sapiens, UniProt P06493)
CDK1/cyclinB(h), sequence (P06493 whole entry): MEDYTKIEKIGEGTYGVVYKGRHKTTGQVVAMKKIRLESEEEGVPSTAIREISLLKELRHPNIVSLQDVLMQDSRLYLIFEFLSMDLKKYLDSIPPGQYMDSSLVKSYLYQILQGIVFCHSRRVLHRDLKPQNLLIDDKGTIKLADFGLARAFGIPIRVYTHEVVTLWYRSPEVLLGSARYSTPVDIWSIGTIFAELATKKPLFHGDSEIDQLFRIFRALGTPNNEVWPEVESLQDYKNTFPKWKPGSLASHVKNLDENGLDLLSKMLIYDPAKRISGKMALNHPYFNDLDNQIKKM
CDK1/cyclinB(h), sequence (P14635 whole entry partner): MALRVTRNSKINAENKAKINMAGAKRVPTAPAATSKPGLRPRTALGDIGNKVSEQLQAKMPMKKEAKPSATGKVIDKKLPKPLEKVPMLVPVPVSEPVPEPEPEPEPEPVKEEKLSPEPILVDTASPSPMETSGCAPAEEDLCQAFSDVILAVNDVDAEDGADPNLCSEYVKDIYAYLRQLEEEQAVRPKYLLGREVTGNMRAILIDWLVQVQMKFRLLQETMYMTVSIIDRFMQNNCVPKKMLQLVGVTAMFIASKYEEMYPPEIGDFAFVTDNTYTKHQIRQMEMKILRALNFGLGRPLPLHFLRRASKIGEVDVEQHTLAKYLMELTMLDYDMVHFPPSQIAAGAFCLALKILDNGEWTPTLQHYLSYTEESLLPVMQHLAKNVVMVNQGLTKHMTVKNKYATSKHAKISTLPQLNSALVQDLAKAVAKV

Bmx(h) = biological target: T3, Bmx(h) (Homo sapiens, UniProt P51813)
T3 sequence (P51813 1-675): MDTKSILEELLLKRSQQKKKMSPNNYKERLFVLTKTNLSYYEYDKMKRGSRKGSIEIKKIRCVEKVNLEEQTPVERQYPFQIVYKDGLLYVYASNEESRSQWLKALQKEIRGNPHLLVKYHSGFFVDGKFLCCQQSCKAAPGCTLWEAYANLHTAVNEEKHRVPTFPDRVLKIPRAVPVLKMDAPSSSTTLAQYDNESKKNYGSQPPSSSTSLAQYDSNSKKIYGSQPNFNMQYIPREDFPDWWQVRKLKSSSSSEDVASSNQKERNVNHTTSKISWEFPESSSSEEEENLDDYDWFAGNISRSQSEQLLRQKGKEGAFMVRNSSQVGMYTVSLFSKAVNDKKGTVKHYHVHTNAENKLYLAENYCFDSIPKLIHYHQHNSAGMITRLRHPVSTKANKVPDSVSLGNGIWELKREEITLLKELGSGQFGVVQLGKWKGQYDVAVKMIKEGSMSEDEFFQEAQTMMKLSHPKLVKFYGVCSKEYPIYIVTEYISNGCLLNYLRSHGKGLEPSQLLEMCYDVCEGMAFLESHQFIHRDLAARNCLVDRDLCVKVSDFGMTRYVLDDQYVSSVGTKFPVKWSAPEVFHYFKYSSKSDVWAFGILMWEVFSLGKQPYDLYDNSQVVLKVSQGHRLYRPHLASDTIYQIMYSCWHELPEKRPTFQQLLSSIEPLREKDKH

In the case of FAKLAARLYRKALARQLGVAA [MMI-0300], the “% activity” value (IGF-1R(h), activated) is reported as 80%, the “% activity” value (ULK2(h)) is reported as 122% and the “% activity” value (PRAK(h)) is reported as 128%. The “% activity” value (WNK3(h)) was 77%, the “% activity” value (Met(Y1248C)(h)) was 84% and the “% activity” value (IRR(h)) was 8%. The “% activity” value (cKit(V654A)(h)) was 134%, the “% activity” value (EphA4(h)) was 88% and the “% activity” value (ROCK-II(h)) was 74%. The “% activity” value (NEK7(h)) was 84% and the “% activity” value (CDK1/cyclinB(h)) was 73%.

HRRIKAWLKKIKALARQLGVAA [MMI-0500] was tested, and the “% activity” value (IGF-1R(h), activated) was 45%, the “% activity” value (ULK2(h)) was 124% and the “% activity” value (PRAK(h)) was 95%. For the same sequence, the “% activity” value (WNK3(h)) was 9%, the “% activity” value (Met(Y1248C)(h)) was 73% and the “% activity” value (IRR(h)) was 10%. The “% activity” value (cKit(V654A)(h)) was 223%, the “% activity” value (EphA4(h)) was 48% and the “% activity” value (ROCK-II(h)) was 2%. The “% activity” value (NEK7(h)) was 89%, the “% activity” value (CDK1/cyclinB(h)) was 57% and the “% activity” value (Bmx(h)) was 45%.

KAFAKLAARLYRKALARQLGVAA [MMI-0400] was tested, and the “% activity” value (IGF-1R(h), activated) was 77%, the “% activity” value (ULK2(h)) was 131% and the “% activity” value (PRAK(h)) was 118%. The “% activity” value (WNK3(h)) was 74%, the “% activity” value (Met(Y1248C)(h)) was 36% and the “% activity” value (IRR(h)) was 8%. For the same sequence, the “% activity” value (cKit(V654A)(h)) was 150%, the “% activity” value (EphA4(h)) was 65% and the “% activity” value (ROCK-II(h)) was 77%. For the same sequence, the “% activity” value (NEK7(h)) was 87%, the “% activity” value (CDK1/cyclinB(h)) was 74% and the “% activity” value (Bmx(h)) was 26%.

For YARAAARQARAKALNRQLGVA [MMI-0200], the “% activity” value (IGF-1R(h), activated) was 94%, the “% activity” value (ULK2(h)) was 132% and the “% activity” value (WNK3(h)) was 97%. For the same sequence, the “% activity” value (Met(Y1248C)(h)) was 141%, the “% activity” value (IRR(h)) was 69% and the “% activity” value (EphA4(h)) was 127%. The “% activity” value (ROCK-II(h)) was 85%, the “% activity” value (NEK7(h)) was 96% and the “% activity” value (Bmx(h)) was 76%.
